Measured values from PMC8294589.

Target: PP2A-B56γ1 holoenzyme (UniProt P30153)
Sequence (P30153 whole entry, chain 1 of 3, other chains not shown): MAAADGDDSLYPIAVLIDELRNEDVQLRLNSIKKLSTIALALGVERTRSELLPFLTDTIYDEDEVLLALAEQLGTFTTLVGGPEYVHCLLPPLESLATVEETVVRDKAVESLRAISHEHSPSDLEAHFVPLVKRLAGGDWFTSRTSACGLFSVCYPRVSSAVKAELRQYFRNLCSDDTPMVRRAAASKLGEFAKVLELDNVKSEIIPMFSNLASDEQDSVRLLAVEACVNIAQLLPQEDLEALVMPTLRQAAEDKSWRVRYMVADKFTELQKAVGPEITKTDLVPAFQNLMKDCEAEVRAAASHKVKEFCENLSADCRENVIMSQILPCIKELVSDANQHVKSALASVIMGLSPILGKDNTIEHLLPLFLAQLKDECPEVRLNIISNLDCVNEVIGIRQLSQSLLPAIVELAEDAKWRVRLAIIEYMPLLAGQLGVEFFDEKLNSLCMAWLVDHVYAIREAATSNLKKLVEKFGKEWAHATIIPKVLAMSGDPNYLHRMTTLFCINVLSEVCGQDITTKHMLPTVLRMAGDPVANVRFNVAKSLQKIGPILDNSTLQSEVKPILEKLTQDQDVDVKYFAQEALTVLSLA
Sequence (P67775 whole entry, chain 2 of 3, other chains not shown, further chain): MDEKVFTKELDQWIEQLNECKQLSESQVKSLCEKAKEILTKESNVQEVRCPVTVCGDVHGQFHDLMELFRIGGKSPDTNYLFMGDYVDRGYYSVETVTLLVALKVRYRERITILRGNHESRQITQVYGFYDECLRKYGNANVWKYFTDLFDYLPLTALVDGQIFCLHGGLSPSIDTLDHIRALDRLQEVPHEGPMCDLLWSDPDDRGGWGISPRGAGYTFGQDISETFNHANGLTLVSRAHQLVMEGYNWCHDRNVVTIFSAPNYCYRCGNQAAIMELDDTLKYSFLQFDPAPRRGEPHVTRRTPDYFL

Chain of pS133-CREB (129–154) peptide (P16220 129-154): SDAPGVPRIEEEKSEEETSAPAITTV

Km of PP2A-B56γ1 holoenzyme phosphatase activity toward pS133-CREB (129–154), steady-state kinetics with a phosphate sensor (peptide 3.9 to 250 μM): 10.3 μM
Substance: pS133-CREB (129–154) peptide (from UniProt P16220-2 129-154)
